Biological target: T1, ClpB, wild type (E. coli, UniProt P63284 1-857)
T1 construct: ClpB, E. coli, wild type; also called wt ClpB; wt-ClpB; source: E. coli BB4561, purified as previously described
Assay: co-sedimentation; G6PDH50 aggregates (1 μM) incubated 10 min at 30 °C in refolding buffer with DnaJ, 3.5 μM wt DnaK or variant, with or without 5 μM wt or mutant ClpB, 3 mM ATP with regenerating system, no GrpE; 122,000 x g, 40 min, 4 °C; pellets on SDS-PAGE or NuPAGE, densitometry, controls with native G6PDH subtracted
Details: both partners purified

binding result: binds
B1: DnaK_(1–507) (domain or fragment)
chain: not shown
notes: DnaK, E. coli, residues 1-507 (lid deleted); also called Δlid; Δlid-DnaK

From paper PMC5895705, “Activation of the DnaK-ClpB Complex is Regulated by the Properties of the Bound Substrate” (Scientific Reports, 2018)
